Patent US20190233475A1 (Bicycle, published 2019)
Read-outs that look alike come from different tables or passages of the source. *1 amine or outer side, *2 acyl side, *3 side chain or, on linkers, in order; H or OH if unused. Bridges are numbered along the chain shown (N, C = ends). Where no end group is shown, it is not given here. [ ]: non-standard residue; d: D form. TBMB = c1c(C[*:1])cc(C[*:3])cc1C[*:2]; hArg = N=C(N)NCCCC[C@H](N)C(=O)O; Aze = O=C(O)[C@@H]1CCN1; Sar = CNCC(=O)O

Columns and labels:
Assay in all cases: enzyme inhibition assay, fluorogenic substrate Z-PheArg-AMC
rat plasma kallikrein [1] = target: T1, rat plasma kallikrein (rat, UniProt P14272 391-638)
T1 construct: domain: catalytic domain; Expressed and purified in house; also called rat kallikrein; rPK
Protocol: (§1) Functional enzyme assays were conducted in 10 mM Tris HCl, 150 mM NaCl, 10 mM MgCl₂, 1 mM CaCl₂ and 1 mg/mL BSA (all Sigma UK) pH 7.4 at 25° C. in solid black 96 or 384 well plates. […] Release of AMC was measured using a Pherastar FS (BMG Labtech), excitation 360 nm, emission 460 nm. The rate of the linear phase of the reaction, typically 5 to 45 minutes, was calculated in MARS data analysis software (BMG labtech). The rate was then used to calculate the IC₅₀ and Kᵢ in Prism (GraphPad). A four parameter inhibition non-linear regression equation was used to calculate the IC₅₀. The One site-fit Kᵢ equation used to calculate the Kᵢ, constraining the Kᵢ to the Kₘ for the substrate which is 150 μM for the human enzyme, and 200 μM for the rat orthologue. All Kᵢ/IC₅₀ values are the mean of at least two independent experiments, and at least three for peptides with Kᵢ values lower than 1 nM. For rabbit kallikrein, between 7 to 14 pM enzyme was employed, with 33 μM substrate with a Kₘ of 50 μM.

rabbit plasma kallikrein [2] = target: T2, rabbit plasma kallikrein (rabbit, UniProt G1T127 20-390; G1T127 391-629, The active enzyme is two chains, heavy and catalytic light, joined by a disulfide after cleavage at Arg390-Ile391. The letters do not carry the natural glycosylation.)
T2 construct: also called rabbit kallikrein
Protocol: as §1

human plasma kallikrein [3] = target: T3, human plasma kallikrein (human, UniProt P03952 20-638)
T3 construct: Enzyme used in the Ki assays; also called human kallikrein; PK
Protocol: as §1

rat plasma kallikrein [4] = target: T1, rat plasma kallikrein; remark: listed apart in the source
Protocol: as §1

rabbit plasma kallikrein [5] = target: T2, rabbit plasma kallikrein; remark: listed apart in the source
Protocol: as §1

human plasma kallikrein [6] = target: T3, human plasma kallikrein; remark: listed apart in the source
Protocol: as §1

T2 sequence (heavy, as listed by the source limits assumed, form in doubt, chain 1 of 2): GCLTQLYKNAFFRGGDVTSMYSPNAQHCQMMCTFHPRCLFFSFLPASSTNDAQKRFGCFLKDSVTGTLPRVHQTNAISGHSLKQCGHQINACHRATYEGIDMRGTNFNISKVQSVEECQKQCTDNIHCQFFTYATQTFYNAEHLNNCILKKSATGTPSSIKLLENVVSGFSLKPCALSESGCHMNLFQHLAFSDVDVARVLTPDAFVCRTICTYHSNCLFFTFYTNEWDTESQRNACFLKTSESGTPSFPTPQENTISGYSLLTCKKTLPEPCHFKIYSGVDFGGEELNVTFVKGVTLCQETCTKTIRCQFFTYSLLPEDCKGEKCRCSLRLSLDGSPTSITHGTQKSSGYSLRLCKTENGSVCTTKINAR
T2 sequence (light, as listed by the source limits assumed, form in doubt, chain 2 of 2): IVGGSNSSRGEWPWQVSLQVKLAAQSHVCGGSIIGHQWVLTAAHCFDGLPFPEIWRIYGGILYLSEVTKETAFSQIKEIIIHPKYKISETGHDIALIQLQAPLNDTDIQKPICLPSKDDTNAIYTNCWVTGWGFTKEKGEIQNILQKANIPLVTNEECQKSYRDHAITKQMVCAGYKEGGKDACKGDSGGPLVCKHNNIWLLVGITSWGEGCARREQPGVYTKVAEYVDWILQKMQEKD
T3 sequence (P03952 20-638 limits assumed): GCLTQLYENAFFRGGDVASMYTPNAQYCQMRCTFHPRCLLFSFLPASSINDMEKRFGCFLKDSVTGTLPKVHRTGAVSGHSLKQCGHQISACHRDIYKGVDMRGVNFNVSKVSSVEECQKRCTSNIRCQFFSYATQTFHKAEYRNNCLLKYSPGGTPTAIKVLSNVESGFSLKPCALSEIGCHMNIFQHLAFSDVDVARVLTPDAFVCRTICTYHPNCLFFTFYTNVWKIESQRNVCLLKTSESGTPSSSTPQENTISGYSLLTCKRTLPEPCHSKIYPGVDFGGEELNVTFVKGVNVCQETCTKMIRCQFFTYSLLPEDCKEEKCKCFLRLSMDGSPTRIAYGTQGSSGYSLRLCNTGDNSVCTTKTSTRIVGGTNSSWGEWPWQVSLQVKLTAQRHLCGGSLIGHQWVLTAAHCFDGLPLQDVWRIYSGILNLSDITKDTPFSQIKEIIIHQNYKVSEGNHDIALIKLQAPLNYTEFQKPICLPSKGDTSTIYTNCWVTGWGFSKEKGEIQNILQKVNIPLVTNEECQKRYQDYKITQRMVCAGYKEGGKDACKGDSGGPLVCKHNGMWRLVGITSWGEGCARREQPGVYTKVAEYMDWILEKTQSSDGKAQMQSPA
T1 sequence (P14272 391-638 limits assumed): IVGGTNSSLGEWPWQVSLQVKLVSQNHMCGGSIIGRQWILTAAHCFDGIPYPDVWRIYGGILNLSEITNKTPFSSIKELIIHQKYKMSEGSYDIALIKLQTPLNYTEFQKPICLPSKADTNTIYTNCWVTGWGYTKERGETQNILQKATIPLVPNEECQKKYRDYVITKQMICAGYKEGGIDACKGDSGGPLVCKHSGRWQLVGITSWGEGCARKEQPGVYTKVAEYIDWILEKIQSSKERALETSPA

Binder	Ki (rat plasma kallikrein [1])	Ki (rabbit plasma kallikrein [2])	Ki (human plasma kallikrein [3])	Ki (rat plasma kallikrein [4])	Ki (rabbit plasma kallikrein [5])	Ki (human plasma kallikrein [6])
ACQKFESRCRVDTRYCA-NH2 (linker 2-9-16 via TBMB, Synthetic bicyclic peptide, 6 x 6, made on Rink amide resin) [06-256]	2780 nM	1460 nM	6.6 nM	2780 nM	1460 nM	6.6 nM
ACNNFPFRCVYYPDICA-NH2 (linker 2-9-16 via TBMB, Synthetic bicyclic peptide, 6 x 6, made on Rink amide resin) [06-261]	4 nM	1040 nM	0.4 nM	4 nM	1040 nM	0.4 nM
Ac-CRNYWNPCTLINITC-NH2 (linker 1-8-15 via TBMB, Synthetic bicyclic peptide without the terminal alanines, made on Rink amide resin) [Ac-(06-255)]				7.7 nM	342 nM	3.7 nM
Ac-CRNYWNPCTLINITCA[Sar][Sar][Sar][dR][dR]-NH2 (linker 1-8-15 via TBMB; SMILES CC[C@H](C)[C@@H]1NC(=O)[C@H](CC(C)C)NC(=O)[C@H]([C@@H](C)O)NC(=O)[C@@H]2CSCc3cc(cc(c3)CSC[C@@H](C(=O)N[C@@H](C)C(=O)N(C)CC(=O)N(C)CC(=O)N(C)CC(=O)N[C@H](CCCNC(=N)N)C(=O)N[C@H](CCCNC(=N)N)C(N)=O)NC(=O)[C@H]([C@@H](C)O)NC(=O)[C@H]([C@@H](C)CC)NC(=O)[C@H](CC(N)=O)NC1=O)CSC[C@H](NC(C)=O)C(=O)N[C@@H](CCCNC(=N)N)C(=O)N[C@@H](CC(N)=O)C(=O)N[C@@H](Cc1ccc(O)cc1)C(=O)N[C@@H](Cc1c[nH]c3ccccc13)C(=O)N[C@@H](CC(N)=O)C(=O)N1CCC[C@H]1C(=O)N2, Synthetic bicyclic peptide with solubilising extension, made on Rink amide resin) [Ac-(06-255)-Sar3-(DArg2)]				7.4 nM	251 nM	1.2 nM
Ac-CNTWNPWCPWDAPLCA[Sar][Sar][Sar][dR][dR]-NH2 (linker 1-8-15 via TBMB; SMILES CC(=O)N[C@H]1CSCc2cc3cc(c2)CSC[C@H](NC(=O)[C@H](Cc2c[nH]c4ccccc24)NC(=O)[C@@H]2CCCN2C(=O)[C@H](CC(N)=O)NC(=O)[C@H](Cc2c[nH]c4ccccc24)NC(=O)[C@H]([C@@H](C)O)NC(=O)[C@H](CC(N)=O)NC1=O)C(=O)N1CCC[C@H]1C(=O)N[C@@H](Cc1c[nH]c2ccccc12)C(=O)N[C@@H](CC(=O)O)C(=O)N[C@@H](C)C(=O)N1CCC[C@H]1C(=O)N[C@@H](CC(C)C)C(=O)N[C@H](C(=O)N[C@@H](C)C(=O)N(C)CC(=O)N(C)CC(=O)N(C)CC(=O)N[C@H](CCCNC(=N)N)C(=O)N[C@H](CCCNC(=N)N)C(N)=O)CSC3, Synthetic bicyclic peptide with solubilising extension, made on Rink amide resin; also called Bicycle 3) [Ac-(06-259-02)-Sar3-(DArg2)]				2.1 nM	1450 nM	0.8 nM
ACPLSDTLCYRRMPPCA-NH2 (linker 2-9-16 via TBMB, Synthetic bicyclic peptide, 6 x 6, made on Rink amide resin) [06-257]	159 nM		36.1 nM	159 nM		36.1 nM
Ac-CSFPYRCVYYPDIC-NH2 (linker 1-7-14 via TBMB) [Ac-(06-550)]				9.3 nM	610 nM	0.9 nM
Ac-CSFPYRCVYYPDICA[Sar][Sar][Sar][dR][dR]-NH2 (linker 1-7-14 via TBMB, Synthetic bicyclic peptide, 5 x 6, made on Rink amide resin) [Ac-(06-550)-Sar3-(DArg2)]				24 nM	207 nM	2.1 nM
Ac-CSF[Aze]Y[hArg]CVYYPDICA[Sar][Sar][Sar][dR][dR]-NH2 (linker 1-7-14 via TBMB, Synthetic bicyclic peptide, 5 x 6, made on Rink amide resin; also called Bicycle 1) [Ac-(06-550)-Sar3-(DArg2) Aze3HArg5]				8.2 nM	2650 nM	0.4 nM
ACPYPFRCLHENLCA-NH2 (linker 2-8-14 via TBMB, Synthetic bicyclic peptide, 5 x 5, made on Rink amide resin) [06-258]	5.2 nM	331 nM	4.3 nM	5.2 nM	331 nM	4.3 nM
ACNTWNPWCGWVGGFCA-NH2 (linker 2-9-16 via TBMB, Synthetic bicyclic peptide, 6 x 6, made on Rink amide resin) [06-259]	6.2 nM		20.1 nM	6.2 nM		20.1 nM
ACKNYWNPCDLVTISCA-NH2 (linker 2-9-16 via TBMB; N-terminus assumed; SMILES CC[C@H](C)[C@@H]1NC(=O)[C@H]([C@@H](C)O)NC(=O)[C@H](C(C)C)NC(=O)[C@H](CC(C)C)NC(=O)[C@H](CC(=O)O)NC(=O)[C@@H]2CSCc3cc(cc(c3)CSC[C@@H](C(=O)N[C@@H](C)C(N)=O)NC(=O)[C@H](CO)NC1=O)CSC[C@H](NC(=O)[C@H](C)N)C(=O)N[C@@H](CCCCN)C(=O)N[C@@H](CC(N)=O)C(=O)N[C@@H](Cc1ccc(O)cc1)C(=O)N[C@@H](Cc1c[nH]c3ccccc13)C(=O)N[C@@H](CC(N)=O)C(=O)N1CCC[C@H]1C(=O)N2, Synthetic bicyclic peptide, 6 x 6, made on Rink amide resin) [06-254]	42.5 nM	280 nM	5.3 nM	42.5 nM	280 nM	5.3 nM
ACRNYWNPCTLINITCA-NH2 (linker 2-9-16 via TBMB, Synthetic bicyclic peptide, 6 x 6, made on Rink amide resin) [06-255]	18.9 nM	342 nM	3.4 nM	18.9 nM	342 nM	3.4 nM
ACKNYWNPCDLIETTCA-NH2 (linker 2-9-16 via TBMB; N-terminus assumed; SMILES CC[C@H](C)[C@@H]1NC(=O)[C@H](CC(C)C)NC(=O)[C@H](CC(=O)O)NC(=O)[C@@H]2CSCc3cc(cc(c3)CSC[C@@H](C(=O)N[C@@H](C)C(N)=O)NC(=O)[C@H]([C@@H](C)O)NC(=O)[C@H]([C@@H](C)O)NC(=O)[C@H](CCC(=O)O)NC1=O)CSC[C@H](NC(=O)[C@H](C)N)C(=O)N[C@@H](CCCCN)C(=O)N[C@@H](CC(N)=O)C(=O)N[C@@H](Cc1ccc(O)cc1)C(=O)N[C@@H](Cc1c[nH]c3ccccc13)C(=O)N[C@@H](CC(N)=O)C(=O)N1CCC[C@H]1C(=O)N2, Synthetic bicyclic peptide, 6 x 6, made on Rink amide resin) [06-254-01]	15.9 nM		1 nM			
ACKNYWNPCDLIPGPCA-NH2 (linker 2-9-16 via TBMB; N-terminus assumed; SMILES CC[C@H](C)[C@@H]1NC(=O)[C@H](CC(C)C)NC(=O)[C@H](CC(=O)O)NC(=O)[C@@H]2CSCc3cc(cc(c3)CSC[C@@H](C(=O)N[C@@H](C)C(N)=O)NC(=O)[C@@H]3CCCN3C(=O)CNC(=O)[C@@H]3CCCN3C1=O)CSC[C@H](NC(=O)[C@H](C)N)C(=O)N[C@@H](CCCCN)C(=O)N[C@@H](CC(N)=O)C(=O)N[C@@H](Cc1ccc(O)cc1)C(=O)N[C@@H](Cc1c[nH]c3ccccc13)C(=O)N[C@@H](CC(N)=O)C(=O)N1CCC[C@H]1C(=O)N2, Synthetic bicyclic peptide, 6 x 6, made on Rink amide resin) [06-254-02]	7.6 nM		0.5 nM			
ACKNYWNPCDLVMDTCA-NH2 (linker 2-9-16 via TBMB; N-terminus assumed; SMILES CSCC[C@@H]1NC(=O)[C@H](C(C)C)NC(=O)[C@H](CC(C)C)NC(=O)[C@H](CC(=O)O)NC(=O)[C@@H]2CSCc3cc(cc(c3)CSC[C@@H](C(=O)N[C@@H](C)C(N)=O)NC(=O)[C@H]([C@@H](C)O)NC(=O)[C@H](CC(=O)O)NC1=O)CSC[C@H](NC(=O)[C@H](C)N)C(=O)N[C@@H](CCCCN)C(=O)N[C@@H](CC(N)=O)C(=O)N[C@@H](Cc1ccc(O)cc1)C(=O)N[C@@H](Cc1c[nH]c3ccccc13)C(=O)N[C@@H](CC(N)=O)C(=O)N1CCC[C@H]1C(=O)N2, Synthetic bicyclic peptide, 6 x 6, made on Rink amide resin) [06-254-03]	10.1 nM		1.4 nM			
ACNHWNPWCSVEPPVCA-NH2 (linker 2-9-16 via TBMB, Synthetic bicyclic peptide, 6 x 6, made on Rink amide resin) [06-259-01]	10.4 nM		2.4 nM			
ACNTWNPWCPWDAPLCA-NH2 (linker 2-9-16 via TBMB, Synthetic bicyclic peptide, 6 x 6, made on Rink amide resin) [06-259-02]	0.2 nM	1450 nM	2.3 nM			
ACNYWNPWCPWDAPLCA-NH2 (linker 2-9-16 via TBMB, Synthetic bicyclic peptide, 6 x 6, made on Rink amide resin) [06-259-04]	6.7 nM		3.4 nM			
ACNHWNPWCSADPPICA-NH2 (linker 2-9-16 via TBMB, Synthetic bicyclic peptide, 6 x 6, made on Rink amide resin) [06-259-03]	8.2 nM		1.4 nM			
